Publication PMC2140169

How the values were obtained:
[1] = biological target: GST-Nup358 fragment 2500-C (amino acid 2500 to the COOH terminus) (UniProt P49792); test: solid-phase binding assay in microtiter wells
[2] = biological target: GST-Nup358 fragment amino acids 2550-2837 (region between Ran-binding domains three and four, without FXFG repeats) (UniProt P49792); test: solid-phase binding assay in microtiter wells

- percent of added protein bound [1]: 20%
- fold reduction in binding against the domain containing FXFG repeats (2503-2893) [2]: 5 fold
Substance: SUMO-1-modified NΔ419 (RanGAP1 amino acids 420-589) (from UniProt P46061 420-589) (complex)
